± gives the uncertainty stated by the source.

A short description of the data set: self-splicing fitness, log relative to wild type (ln ratio); higher = more splicing; Tetrahymena group I intron in knt gene, E. coli kanamycin selection, DiMSum; sequences stand for … in CUCUCU…GGAGGGAAAAGUUAUCAGGCAUGCACCUGGUAGCUAGUCUUUAAACCAAUAGAUUGCAUCGGUUUAAAAGGCAAGACCGUCAAAUUGCGGGAAAGGGGUCAACAGCCGUUCAGUACCAAGUCUCAGGGGAAACUUUGAGAUGGCCUUGCAAAGGGUAUGGUAAUAAGCUGACGGACAUGGUCCUAACCACGCAGCCAAGUCCUAAGUCAACAGAUCUUCUGUUGAUAUGGAUGCAGUUCACAGACUAAAUGUCGGUCGGGGAAGAUGUAUUCUUCUCAUAAGAUAUAGUCGGACCUCUCCUUAAUGGGAGCUAGCGGAUGAAGUGAUGCAACACUGGAGCCGCUGGGAACUAAUUUGUAUGCGAAAGUAUAUUGAUUAGUUUUGGAGUACUCGUGGUCG
The gist of the method:
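The eight P1ex-region nucleotides of an intron in the knt kanamycin-resistance gene on pET-22b(+) were all randomised and the library put into E. coli BL21(DE3). Six replicate transformations were grown overnight at 37°C or 30°C on LB agar with or without 25 μg/mL kanamycin, together with 100 μg/mL carbenicillin, 50 μM IPTG and 0.2% rhamnose. Colonies were pooled and amplicon-sequenced on an Illumina HiSeq 2500. Fitness from DiMSum is the error-weighted combination of wild-type-normalised replicate fold changes, kanamycin over none.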

As for ACAAAGCAAUAUUACGGGGC, the “self-splicing fitness (ln)” value was -3.69 ± 0.23 (30 °C) and -3.28 ± 0.27 (37 °C).
For ACGAAGCAAUAUUACGUGAG, in that order: -0.888 ± 0.056 and -1.14 ± 0.087.
GAAGAGCAAUAUUACGCUAC: the “self-splicing fitness (ln)” value (30 °C) is -3.19 ± 0.25.
UUCCAGCAAUAUUACGGGGG: the “self-splicing fitness (ln)” value was -3.3 ± 0.15 (30 °C) and -1.57 ± 0.14 (37 °C).
Consider GACUAGCAAUAUUACGUUAC, for which the “self-splicing fitness (ln)” value was -2.46 ± 0.19 (30 °C) and -1.84 ± 0.22 (37 °C).
Consider AUUAAGCAAUAUUACGGAAC, for which the “self-splicing fitness (ln)” value is -3.44 ± 0.2 (30 °C) and -0.822 ± 0.13 (37 °C).
The corresponding values for UUAAAGCAAUAUUACGACAA are 0.44 ± 0.091 and 0.336 ± 0.11.
For UAAGAGCAAUAUUACGCCAC, in that order: -2.07 ± 0.22 and -1.59 ± 0.29.
For the sequence UCUCAGCAAUAUUACGCAUC, the “self-splicing fitness (ln)” value (30 °C) is -3.51 ± 0.21 and the “self-splicing fitness (ln)” value (37 °C) is -2.32 ± 0.2.
The corresponding values for GGUUAGCAAUAUUACGGGAU are -3.13 ± 0.26 and -1.4 ± 0.24.
Turning to AAAUAGCAAUAUUACGUCCA, the “self-splicing fitness (ln)” value (30 °C) is -0.829 ± 0.084 and the “self-splicing fitness (ln)” value (37 °C) was -0.327 ± 0.1.
For GGCUAGCAAUAUUACGCUUA, in that order: -0.872 ± 0.1 and -0.117 ± 0.11.
The corresponding values for UACUAGCAAUAUUACGCUUA are -1.38 ± 0.11 and -0.588 ± 0.11.
With UCUGAGCAAUAUUACGUACG, the “self-splicing fitness (ln)” value (37 °C) is -2.34 ± 0.35.
Take UCCCAGCAAUAUUACGUUAG: the “self-splicing fitness (ln)” value is, setting by setting: (30 °C) -4.08 ± 0.19; (37 °C) -2.78 ± 0.18.
The corresponding values for AUGCAGCAAUAUUACGGCCC are -0.0496 ± 0.14 and 0.777 ± 0.19.
The corresponding values for AACUAGCAAUAUUACGCGUG are -1.53 ± 0.08 and -0.485 ± 0.09.
The corresponding values for AUAUAGCAAUAUUACGGGAA are -2.9 ± 0.2 and -2.23 ± 0.19.
Consider UUUCAGCAAUAUUACGACCA, for which the “self-splicing fitness (ln)” value (30 °C) was -0.495 ± 0.19 and the “self-splicing fitness (ln)” value (37 °C) was -1.36 ± 0.23.
On to UCUUAGCAAUAUUACGAUAG, for which the “self-splicing fitness (ln)” value (30 °C) was -1.77 ± 0.17 and the “self-splicing fitness (ln)” value (37 °C) was -1.63 ± 0.16.
On to AAUUAGCAAUAUUACGGAUA, for which the “self-splicing fitness (ln)” value reads like this: (30 °C) -1.75 ± 0.11; (37 °C) -0.926 ± 0.11.
For the sequence ACUAAGCAAUAUUACGAUCA, the “self-splicing fitness (ln)” value was -1.15 ± 0.072 (30 °C) and -0.58 ± 0.073 (37 °C).
Take UUGAAGCAAUAUUACGCCUG: the “self-splicing fitness (ln)” value was determined as 0.189 ± 0.11 (30 °C) and 0.0665 ± 0.12 (37 °C).
In the case of GUUAAGCAAUAUUACGUGCC, the “self-splicing fitness (ln)” value was -1.39 ± 0.25 (30 °C) and -0.253 ± 0.36 (37 °C).
For GUGAAGCAAUAUUACGGGUU, in that order: -1.67 ± 0.069 and -1.4 ± 0.1.
For the sequence AUUUAGCAAUAUUACGCAGA, the “self-splicing fitness (ln)” value runs as follows: (30 °C) -2.07 ± 0.3; (37 °C) -1.07 ± 0.19.
The corresponding values for AUAAAGCAAUAUUACGGUGC are -1.95 ± 0.1 and -0.743 ± 0.13.
The corresponding values for UCUGAGCAAUAUUACGACGA are -0.584 ± 0.11 and 0.197 ± 0.13.
The corresponding values for UGCGAGCAAUAUUACGGUCU are -2.12 ± 0.15 and -1.45 ± 0.25.
GGGGAGCAAUAUUACGGAGG: under “37 °C”, the “self-splicing fitness (ln)” value is -1.4 ± 0.35.
Still for that read-out and setting: the value for AGAGAGCAAUAUUACGAAUA was -0.719 ± 0.49.
In the case of CACAAGCAAUAUUACGGGGA, the “self-splicing fitness (ln)” value (30 °C) was -2.64 ± 0.11 and the “self-splicing fitness (ln)” value (37 °C) is -1.69 ± 0.1.
The corresponding values for GGUUAGCAAUAUUACGAAUC are -1.76 ± 0.16 and -1.06 ± 0.24.
GCCUAGCAAUAUUACGGUCA: the “self-splicing fitness (ln)” value by setting is: (30 °C) -0.989 ± 0.13; (37 °C) -0.494 ± 0.12.
For AAUCAGCAAUAUUACGAACC, in that order: -0.433 ± 0.11 and 0.499 ± 0.18.
Regarding GACAAGCAAUAUUACGGGCU, the “self-splicing fitness (ln)” value is -1.63 ± 0.087 (30 °C) and -1.39 ± 0.097 (37 °C).
The corresponding values for AGUCAGCAAUAUUACGAAGC are -3.56 ± 0.18 and -2.03 ± 0.17.
For CCGUAGCAAUAUUACGGUCC, in that order: -4.14 ± 0.3 and -2.93 ± 0.28.

Values taken from the supplement of paper PMC7877785.
